Target: CD44 (isoform 4), Fc-fused (human)
Test: SPR; apparent KD, dimeric Fc-fused target

CD44 (isoform 4), Fc-fused (human), sequence (chain, as listed by the source): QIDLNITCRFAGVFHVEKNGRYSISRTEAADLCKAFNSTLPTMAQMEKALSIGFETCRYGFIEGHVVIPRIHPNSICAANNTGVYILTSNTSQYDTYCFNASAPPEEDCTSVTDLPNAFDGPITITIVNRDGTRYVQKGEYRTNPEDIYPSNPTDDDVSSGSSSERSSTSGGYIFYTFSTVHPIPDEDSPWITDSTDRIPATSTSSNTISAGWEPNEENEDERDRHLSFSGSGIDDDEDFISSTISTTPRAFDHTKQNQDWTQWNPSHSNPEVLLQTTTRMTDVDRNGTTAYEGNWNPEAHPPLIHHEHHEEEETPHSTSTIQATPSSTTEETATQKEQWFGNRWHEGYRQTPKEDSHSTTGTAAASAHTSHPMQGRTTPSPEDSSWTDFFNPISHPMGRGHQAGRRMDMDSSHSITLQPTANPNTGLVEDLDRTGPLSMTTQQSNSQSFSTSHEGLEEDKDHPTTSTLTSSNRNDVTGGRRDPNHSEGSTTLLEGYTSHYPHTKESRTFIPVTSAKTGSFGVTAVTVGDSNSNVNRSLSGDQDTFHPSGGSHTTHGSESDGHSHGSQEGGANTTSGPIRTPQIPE

- Kd: 48 nM
B1: BIWA4 (bivatuzumab), as human IgG4 (antibody, V domains shown)
VH: EVQLVESGGGLVKPGGSLRLSCAASGFTFSSYDMSWVRQAPGKGLEWVSTISSGGSYTYYLDSIKGRFTISRDNAKNSLYLQMNSLRAEDTAVYYCARQGLDYWGRGTLVTVSS
VL: EIVLTQSPATLSLSPGERATLSCSASSSINYIYWYQQKPGQAPRLLIYLTSNLASGVPARFSGSGSGTDFTLTISSLEPEDFAVYYCLQWSSNPLTFGGGTKVEIK
